Measured values from patent publication US20250188157A1 (UNIVERSITY OF TOKYO, published 2025).

T1: E. coli wild-type SHMT, GST fusion protein (E. coli, UniProt P0A825 1-417)
T1 construct: Overexpressed in E. coli as GST fusion protein, purified, coated at 2 ug/ml on the ELISA plate; not shown: GST tag
T1 sequence: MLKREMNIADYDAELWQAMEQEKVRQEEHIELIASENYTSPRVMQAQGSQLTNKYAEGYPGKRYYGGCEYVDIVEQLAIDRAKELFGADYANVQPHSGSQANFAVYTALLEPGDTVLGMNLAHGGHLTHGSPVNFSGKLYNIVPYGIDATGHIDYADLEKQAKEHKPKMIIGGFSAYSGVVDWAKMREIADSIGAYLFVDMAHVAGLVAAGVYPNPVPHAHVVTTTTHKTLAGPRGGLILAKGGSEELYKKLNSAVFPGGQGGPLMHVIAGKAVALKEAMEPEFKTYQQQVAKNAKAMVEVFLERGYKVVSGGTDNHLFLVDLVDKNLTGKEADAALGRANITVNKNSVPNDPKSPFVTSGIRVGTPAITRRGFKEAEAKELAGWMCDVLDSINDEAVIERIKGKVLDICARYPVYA

T2: E. coli iPGM (E. coli, UniProt P37689 1-514, limits assumed)
T2 sequence (looked up): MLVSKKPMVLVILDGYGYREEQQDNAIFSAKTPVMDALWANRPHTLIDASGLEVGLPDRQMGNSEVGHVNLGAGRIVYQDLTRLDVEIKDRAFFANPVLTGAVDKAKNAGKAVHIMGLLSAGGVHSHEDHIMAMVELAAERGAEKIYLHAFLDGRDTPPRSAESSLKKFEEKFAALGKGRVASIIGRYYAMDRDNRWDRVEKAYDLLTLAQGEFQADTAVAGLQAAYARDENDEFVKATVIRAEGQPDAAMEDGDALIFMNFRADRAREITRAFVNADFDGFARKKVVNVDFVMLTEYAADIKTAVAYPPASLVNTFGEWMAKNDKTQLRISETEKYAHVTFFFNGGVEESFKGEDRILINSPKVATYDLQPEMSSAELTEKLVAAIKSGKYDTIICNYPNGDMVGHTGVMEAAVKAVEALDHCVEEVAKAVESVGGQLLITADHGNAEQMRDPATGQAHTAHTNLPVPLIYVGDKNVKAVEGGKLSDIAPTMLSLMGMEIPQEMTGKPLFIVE

T3: C. difficile iPGM (486-509) (Clostridium difficile)
T3 construct: the blank is left out; also called C. difficile iPGM antigen
T3 peptide: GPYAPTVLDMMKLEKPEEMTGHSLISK

T4: E. coli SHMT (25-45) (E. coli)
T4 construct: Expressed as GST fusion, cleaved with HRV 3C protease and purified for crystallisation; also called E. coli SHMT antigen
T4 peptide: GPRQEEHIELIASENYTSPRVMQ


Key:
[1] = target: T1, E. coli wild-type SHMT, GST fusion …; test: ELISA, GST fusion protein coated at 2 ug/ml, dilution series of antibody
[2] = target: T2, E. coli iPGM; test: Western blot
[3] = target: T3, C. difficile iPGM (486-509); test: X-ray crystal structure of the complex
[4] = target: T4, E. coli SHMT (25-45); test: X-ray crystal structure of the complex

Binder | binding result [1] | further results
RS_H007_L001 (antibody, V domains shown) VH: EVQLQQSGSELVKSGASVKLSCTVSGFNFTNYYIHWVRQRTEQGLEWIGRIDPENNQTTYAPKFQGKATMTADTSSNTAYLQLTSLTSEDTAVYYCARSTVLDYWGHGTTLTVSS VL: DVLMTQSPASLSVSLGDRATISCRASQSIVHTNGNTYLEWYLQKPGQSPKLLIYKVSNRFSGVPDRFSGSGSGTDFILKISRVEAEDLGVYYCFQGSHVPPTFGGGTKLEVK | binds | –
RS_H000_L001 (antibody, V domains shown, recombinant multimeric IgA co-expressed with J chain (H:L:J = 2:2:1); mainly dimers by SDS-PAGE; also called rW27) VH: EVQLQQSGSELVKSGASVKLSCTVSGFNFTDYYIHWVRQRTEQGLEWIGRIDPENDETTYAPKFQGKATMTADTSSNTAYLQLTSLTSEDTAVYYCARSTVLDYWGHGTTLTVSS VL: DVLMTQSPASLSVSLGDRATISCRASQSIVHTNGNTYLEWYLQKPGQSPKLLIYKVSNRFSGVPDRFSGSGSGTDFILKISRVEAEDLGVYYCFQGSHVPPTFGGGTKLEVK | binds | –
RS_H000_L005 (antibody, V domains shown) VH: EVQLQQSGSELVKSGASVKLSCTVSGFNFTDYYIHWVRQRTEQGLEWIGRIDPENDETTYAPKFQGKATMTADTSSNTAYLQLTSLTSEDTAVYYCARSTVLDYWGHGTTLTVSS VL: DVLMTQSPASLSVSLGDRATISCRSSQSIVHTNGNTYLEWYLQKPGQSPKLLIYKVSNRFSGVPDRFSGSGSGTDFILKISRVEAEDLGVYYCFQGSHVPPTFGGGTKLEVK | binds | –
RS_H007_L002 (antibody, V domains shown) VH: EVQLQQSGSELVKSGASVKLSCTVSGFNFTNYYIHWVRQRTEQGLEWIGRIDPENNQTTYAPKFQGKATMTADTSSNTAYLQLTSLTSEDTAVYYCARSTVLDYWGHGTTLTVSS VL: DVLMTQSPASLSVSLGDRVTISCRASQSIVHTNGNTYLEWYLQKPGQSPKLLIYKVSNRFSGVPDRFSGSGSGTDFILKISRVEAEDLGVYYCFQGSHVPPTFGGGTKLEVK | binds | –
RS_H007_L004 (antibody, V domains shown) VH: EVQLQQSGSELVKSGASVKLSCTVSGFNFTNYYIHWVRQRTEQGLEWIGRIDPENNQTTYAPKFQGKATMTADTSSNTAYLQLTSLTSEDTAVYYCARSTVLDYWGHGTTLTVSS VL: DVLMTQSPASMSVSLGDRATISCRSSQSIVHTNGNTYLEWYLQKPGQSPKLLIYKVSNRFSGVPDRFSGSGSGTDFILKISRVEAEDLGVYYCFQGSHVPPTFGGGTKLEVK | binds | –
RS_H007_L005 (antibody, V domains shown) VH: EVQLQQSGSELVKSGASVKLSCTVSGFNFTNYYIHWVRQRTEQGLEWIGRIDPENNQTTYAPKFQGKATMTADTSSNTAYLQLTSLTSEDTAVYYCARSTVLDYWGHGTTLTVSS VL: DVLMTQSPASLSVSLGDRATISCRSSQSIVHTNGNTYLEWYLQKPGQSPKLLIYKVSNRFSGVPDRFSGSGSGTDFILKISRVEAEDLGVYYCFQGSHVPPTFGGGTKLEVK | binds | –
W27G2 antibody (mouse W27G2 hybridoma-producing IgA antibody) (antibody, V domains shown, Hybridoma-producing IgA; Both names are treated as one molecule here; W27G2CHT is the hydroxyapatite crude preparation, W27G2GF the gel filtration multimer fraction; also called W27 antibody; W27G2CHT) VH: EVQLQQSGSELVKSGASVKLSCTVSGFNFTDYYIHWVRQRTEQGLEWIGRIDPENDETTYAPKFQGKATMTADTSSNTAYLQLTSLTSEDTAVYYCARSTVLDYWGHGTTLTVSS VL: DVLMTQTPLSLPVSLGDQASISCRASQSIVHTNGNTYLEWYLQKPGQSPKLLIYKVSNRFSGVPDRFSGSGSGTDFILKISRVEAEDLGVYYCFQGSHVPPTFGGGTKLEVKR | binds | binding result [2]: no binding
RS_H000_L000GR Fab (Fab, V domains shown, also called IgG W27 Fab) VH: EVQLQQSGSELVKSGASVKLSCTVSGFNFTDYYIHWVRQRTEQGLEWIGRIDPENDETTYAPKFQGKATMTADTSSNTAYLQLTSLTSEDTAVYYCARSTVLDYWGHGTTLTVSS VL: DVLMTQTPLSLPVSLGDQASISCRASQSIVHTNGNTYLEWYLQKPGQSPKLLIYKVSNRFSGVPDRFSGSGSGTDFILKISRVEAEDLGVYYCFQGSHVPPTFGGGTKLEVK | – | binding result [3]: binds; binding result [4]: binds
